Assay [1] addresses PD-1 on PD1 effector cells (Promega PD-1/PD-L1 Blockade Bioassay) (UniProt Q15116 25-288, limits assumed). Nature of the assay: cell-based or functional assay.
The target in assay [2] is PD-L1 on PD-L1 aAPC/CHO-K1 cells (Promega PD-1/PD-L1 Blockade Bioassay) (UniProt Q9NZQ7 19-290, limits assumed). Nature of the assay: cell-based or functional assay.
The target in assay [3] is T1, PD1-ECD-hFc蛋白 (human, UniProt Q15116 25-170).
T1 construct: extracellular domain; Made in house in HEK-293E cells; also called PD-1抗原; not shown: hFc at the C-terminus
Nature of the assay: ELISA, PD1-ECD-hFc coated, HRP mouse anti-human Fab. For orientation: ELISA stands for enzyme-linked immunosorbent assay.

The target of assay [4] is T2, PDL1-ECD-His蛋白 (human, UniProt Q9NZQ7 19-238).
T2 construct: extracellular domain; Made in house in HEK-293E cells; also called PD-L1抗原
Nature of the assay: ELISA, PDL1-ECD-His coated, HRP mouse anti-human Fab.

In assay [5] the target is T3, PD-L1 on N87-PDL1 cells (UniProt Q9NZQ7 19-290, limits assumed).
T3 construct: whole, on cells; also called N87-PDL1细胞
Nature of the assay: flow cytometry on N87-PDL1 cells, goat anti-human IgG-FITC. (Flow cytometry measures light scatter and fluorescence of single cells or particles in a stream.)

Assay [6] deals with T4, PD-1 on CHO stable cells (PD-1/CHO) (UniProt Q15116 25-288, limits assumed).
T4 construct: whole, on cells; also called 细胞表面表达PD-1的CHO稳转细胞; PD-1/CHO细胞
Nature of the assay: flow cytometry on CHO cells stably expressing PD-1, goat anti-human IgG-FITC.

The target in assay [7] is T1, PD1-ECD-hFc蛋白. Nature of the assay: bridging ELISA: PD1-ECD-hFc coated, antibody titrated, then PDL1-ECD-His at 1000ng/ml, read with HRP-anti-His (both antigens bound at once).

Sequence of PD-L1 on PD-L1 aAPC/CHO-K1 cells (Promega PD-1/PD-L1 Blockade Bioassay) (Q9NZQ7 19-290 limits assumed): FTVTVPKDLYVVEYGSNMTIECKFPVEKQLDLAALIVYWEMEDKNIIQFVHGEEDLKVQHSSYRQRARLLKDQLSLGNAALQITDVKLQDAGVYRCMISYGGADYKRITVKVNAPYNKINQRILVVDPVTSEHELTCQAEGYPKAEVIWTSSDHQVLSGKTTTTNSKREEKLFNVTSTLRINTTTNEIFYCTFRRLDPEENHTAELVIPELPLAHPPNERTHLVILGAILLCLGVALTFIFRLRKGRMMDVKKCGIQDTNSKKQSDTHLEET
T3 sequence (Q9NZQ7 19-290 limits assumed): as above
T2 sequence (Q9NZQ7 other isoform, or with tags, fused parts or gaps): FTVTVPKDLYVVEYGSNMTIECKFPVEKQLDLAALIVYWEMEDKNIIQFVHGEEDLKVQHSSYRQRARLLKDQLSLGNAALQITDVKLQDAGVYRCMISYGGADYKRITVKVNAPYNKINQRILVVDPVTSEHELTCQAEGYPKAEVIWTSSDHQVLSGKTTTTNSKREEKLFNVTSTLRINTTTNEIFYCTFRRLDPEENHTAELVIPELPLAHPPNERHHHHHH
T1 sequence (Q15116 25-170): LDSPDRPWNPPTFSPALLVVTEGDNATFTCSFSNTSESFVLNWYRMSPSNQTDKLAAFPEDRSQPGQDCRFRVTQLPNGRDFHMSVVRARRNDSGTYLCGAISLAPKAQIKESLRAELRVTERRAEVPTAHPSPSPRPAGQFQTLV
Sequence of PD-1 on PD1 effector cells (Promega PD-1/PD-L1 Blockade Bioassay) (Q15116 25-288 limits assumed): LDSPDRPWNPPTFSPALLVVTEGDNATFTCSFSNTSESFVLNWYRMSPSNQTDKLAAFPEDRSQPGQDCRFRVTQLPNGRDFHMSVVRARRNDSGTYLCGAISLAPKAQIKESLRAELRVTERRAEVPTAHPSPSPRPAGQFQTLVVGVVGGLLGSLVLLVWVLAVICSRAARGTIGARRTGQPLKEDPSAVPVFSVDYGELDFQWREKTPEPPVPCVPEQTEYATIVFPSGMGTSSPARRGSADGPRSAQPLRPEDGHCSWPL
T4 sequence (Q15116 25-288 limits assumed): as above

B1: anti-PD1×PDL1 BsAb (bispecific antibody, human IgG1, kappa)
heavy: not shown
light: EIVLTQSPDFLSVTPKEKVTITCRASQSIGTTIHWYQQKPDQSPKLLIKYASQSFSGVPSRFSGSGSGTDFTLTINSVEAEDAATYYCQQSNSWPLTFGAGTKLEIKRTVAAPSVFIFPPSDEQLKSGTASVVCLLNNFYPREAKVQWKVDNALQSGNSQESVTEQDSKDSTYSLSSTLTLSKADYEKHKVYACEVTHQGLSSPVTKSFNRGEC
notes: also called 抗PD1×PDL1双抗; 抗PD1×PDL1双特异性抗体
One may read the EC50 as the concentration needed to bring the measured effect to its halfway point. Low values mean higher potency in that assay, high ones lower potency in that assay. Consider B1, for which the “IC50, luminescence (PD-1/PD-L1 Blockade Bioassay)” value in assay [1] and in assay [2] was 0.24 nM throughout. Also, the EC50 in assay [3] was 0.3 nM; in assay [4], 0.29 nM; in assay [5], 0.15 nM; in assay [6], 1.43 nM; in assay [7], 0.36 nM.

B2: 抗PD-L1单抗 (M8) (antibody, human IgG1, kappa, V domains shown)
VH: QVQLQQSGGGLVKPSQSLSLTCTVSGFSLTSYGVHWVRQPPGKGLEWIGLIWSGGGTDYNPSLKSRLTISRDTSKNQVSFKISSLTAADTAVYYCARQLGLRAMDYWGQGTSVTVSS
VL: EIVLTQSPDFLSVTPKEKVTITCRASQSIGTTIHWYQQKPDQSPKLLIKYASQSFSGVPSRFSGSGSGTDFTLTINSVEAEDAATYYCQQSNSWPLTFGAGTKLEIKR
notes: also called 抗人PD-L1单抗M8; anti-PD-L1 mAb
Turning to B2, the “IC50, luminescence (PD-1/PD-L1 Blockade Bioassay)” value in assay [2] is 0.42 nM. Further, the figures for the EC50 in assay [4] and in assay [5] were 0.27 nM and 0.11 nM, respectively.

(Values after CN113754773A (SUNSHINE GUOJIAN PHARMACEUTICAL SHANGHAI CO LTD, dated 2021).)
